Test results published in patent US20200024330A1.

Legend:
Test in all cases: cell-based or functional assay
[1] = target: HIV-1 Env of isolate MGRM-Chronic-B-004 (HIV-1)
[2] = target: HIV-1 Env of isolate MG RM-A-006 (pseudovirus) (HIV-1)
[3] = target: HIV-1 Env of isolate MGRM-Chronic-B-002 (HIV-1)
[4] = target: HIV-1 Env of isolate JRFL (HIV-1)
[5] = target: HIV-1 Env of isolate 92WR026 (pseudovirus) (HIV-1)
[6] = target: HIV-1 Env of isolate CMU02 (pseudovirus) (HIV-1)
[7] = target: HIV-1 Env of isolate 92WR021 (pseudovirus) (HIV-1)
[8] = target: HIV-1 Env of isolate MGRM-D-005 (subtype D), on pseudovirus (HIV-1)
[9] = target: HIV-1 Env of isolate 92RW009 (clade A), on pseudovirus (HIV-1)
[10] = target: HIV-1 Env of isolate 92UG114 (subtype D), on pseudovirus (HIV-1)
[11] = target: HIV-1 Env of isolate MGRM-AE-005 (pseudovirus) (HIV-1)
[12] = target: HIV-1 Env of isolate 93UG077 (pseudovirus) (HIV-1)
[13] = target: HIV-1 Env of isolate MG RM-A-007 (pseudovirus) (HIV-1)
[14] = target: HIV-1 Env of isolate MG RM-A-008 (pseudovirus) (HIV-1)
[15] = target: HIV-1 Env of isolate MGRM-D-008 (subtype D), on pseudovirus (HIV-1)
[16] = target: HIV-1 Env of isolate 94UG103 (pseudovirus) (HIV-1)
[17] = target: HIV-1 Env of isolate APV_13 (HIV-1)
[18] = target: HIV-1 Env of isolate 92UG005 (subtype D), on pseudovirus (HIV-1)
[19] = target: HIV-1 Env of isolate 92WR020 (pseudovirus) (HIV-1)
[20] = target: HIV-1 Env of isolate 93TH305 (HIV-1)
[21] = target: HIV-1 Env of isolate MGRM-D-003 (subtype D), on pseudovirus (HIV-1)
[22] = target: HIV-1 Env of isolate MG RM-A-012 (pseudovirus) (HIV-1)
[23] = target: HIV-1 Env of isolate MGRM-Chronic-B-008 (HIV-1)
[24] = target: HIV-1 Env of isolate MG RM-A-005 (pseudovirus) (HIV-1)
[25] = target: HIV-1 Env of isolate 92RW008 (clade A), on pseudovirus (HIV-1)
[26] = target: HIV-1 92BR020 envelope glycoprotein (Env) on pseudovirus (HIV-1)
[27] = target: HIV-1 Env of isolate MGRM-Chronic-B-003 (HIV-1)
[28] = target: HIV-1 Env of isolate 6535.3 (HIV-1)
[29] = target: HIV-1 Env of isolate 94 KE 105 (pseudovirus) (HIV-1)
[30] = target: HIV-1 Env of isolate MG RM-A-013 (pseudovirus) (HIV-1)
[31] = target: HIV-1 Env of isolate MGRM-D-002 (subtype D), on pseudovirus (HIV-1)
[32] = target: HIV-1 Env of isolate MGRM-D-004 (subtype D), on pseudovirus (HIV-1)
[33] = target: HIV-1 Env of isolate 92UG001 (subtype D), on pseudovirus (HIV-1)
[34] = target: HIV-1 Env of isolate 93WR029 (pseudovirus) (HIV-1)
[35] = target: HIV-1 Env of isolate MGRM-AE-001 (pseudovirus) (HIV-1)
[36] = target: HIV-1 Env of isolate 98CN006 (subtype CRF08 BC), on pseudovirus (HIV-1)
[37] = target: HIV-1 Env of isolate MGRM-D-001 (subtype D), on pseudovirus (HIV-1)
[38] = target: HIV-1 Env of isolate MGRM-AE-002 (pseudovirus) (HIV-1)
[39] = target: HIV-1 Env of isolate 92UG024 (subtype D), on pseudovirus (HIV-1)
[40] = target: HIV-1 Env of isolate CAAN.A2 (HIV-1)
[41] = target: HIV-1 Env of isolate 92BR020 (HIV-1)
[42] = target: HIV-1 Env of isolate MG RM-A-009 (pseudovirus) (HIV-1)
[43] = target: HIV-1 Env of isolate MGRM-AE-003 (pseudovirus) (HIV-1)
[44] = target: HIV-1 Env of isolate VLGCA1 (pseudovirus) (HIV-1)
[45] = target: HIV-1 Env of isolate 92UG037 (pseudovirus) (HIV-1)
[46] = target: HIV-1 Env of isolate MGRM-Chronic-B-001 (HIV-1)
[47] = target: HIV-1 Env of isolate 92UG046 (subtype D), on pseudovirus (HIV-1)
[48] = target: HIV-1 Env of isolate APV_6 (HIV-1)
[49] = target: HIV-1 Env of isolate MGRM-AE-006 (pseudovirus) (HIV-1)
[50] = target: HIV-1 Env of isolate MG RM-A-010 (pseudovirus) (HIV-1)
[51] = target: HIV-1 Env of isolate 92WR024 (pseudovirus) (HIV-1)
[52] = target: HIV-1 Env of isolate APV_17 (HIV-1)
[53] = target: HIV-1 Env of isolate MG RM-A-014 (pseudovirus) (HIV-1)
[54] = target: HIV-1 92RW020 envelope glycoprotein (Env) on pseudovirus (HIV-1)
[55] = target: HIV-1 Env of isolate 92UG031 (pseudovirus) (HIV-1)
[56] = target: HIV-1 Env of isolate 92TH021 (pseudovirus) (HIV-1)
[57] = target: HIV-1 Env of isolate MGRM-AE-004 (pseudovirus) (HIV-1)
[58] = target: HIV-1 Env of isolate MG RM-A-011 (pseudovirus) (HIV-1)
[59] = target: HIV-1 Env of isolate 98CN009 (subtype CRF07_BC), on pseudovirus (HIV-1)

4993_K13 (PGT-141) (antibody), sequence (VH): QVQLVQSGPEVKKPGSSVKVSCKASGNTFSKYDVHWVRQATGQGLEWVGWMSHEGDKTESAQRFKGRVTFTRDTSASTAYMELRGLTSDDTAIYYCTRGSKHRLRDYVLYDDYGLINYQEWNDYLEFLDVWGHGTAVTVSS
4993_K13 (PGT-141) (antibody), sequence (VL): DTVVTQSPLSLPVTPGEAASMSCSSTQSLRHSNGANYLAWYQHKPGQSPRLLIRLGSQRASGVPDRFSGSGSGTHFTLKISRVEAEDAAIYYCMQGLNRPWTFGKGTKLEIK

Substance: 4993_K13 (PGT-141) (antibody)
- IC50 [1]: 0.586 µg/mL
- IC50 (µg/mL), pseudovirus neutralization [2]: > 50 µg/mL
- IC50 [3]: > 50 µg/mL
- IC50 [4]: > 50 µg/mL
- IC50 (µg/mL), pseudovirus neutralization [5]: 1.78 µg/mL
- IC50 (µg/mL), pseudovirus neutralization [6]: > 50 µg/mL
- IC50 (µg/mL), pseudovirus neutralization [7]: > 50 µg/mL
- IC50, pseudovirus neutralization [8]: 5.15 µg/mL
- IC50, single-round pseudovirus neutralization [9]: 0.022 µg/mL
- IC50, pseudovirus neutralization [10]: > 50 µg/mL
- IC50 (µg/mL), pseudovirus neutralization [11]: > 50 µg/mL
- IC50 (µg/mL), pseudovirus neutralization [12]: > 50 µg/mL
- IC50 (µg/mL), pseudovirus neutralization [13]: > 50 µg/mL
- IC50 (µg/mL), pseudovirus neutralization [14]: > 50 µg/mL
- IC50, pseudovirus neutralization [15]: 0.371 µg/mL
- IC50 (µg/mL), pseudovirus neutralization [16]: > 50 µg/mL
- IC50 [17]: > 50 µg/mL
- IC50, pseudovirus neutralization [18]: > 5 µg/mL
- IC50 (µg/mL), pseudovirus neutralization [19]: > 50 µg/mL
- IC50 [20]: > 50 µg/mL
- IC50, pseudovirus neutralization [21]: > 50 µg/mL
- IC50 (µg/mL), pseudovirus neutralization [22]: > 50 µg/mL
- IC50 [23]: > 50 µg/mL
- IC50 (µg/mL), pseudovirus neutralization [24]: 11.1 µg/mL
- IC50, single-round pseudovirus neutralization [25]: 0.579 µg/mL
- IC50 (ug/ml), neutralizing activity [26]: > 10 µg/mL
- IC50 [27]: 0.4 µg/mL
- IC50 [28]: > 50 µg/mL
- IC50 (µg/mL), pseudovirus neutralization [29]: 0.204 µg/mL
- IC50 (µg/mL), pseudovirus neutralization [30]: 9.86 µg/mL
- IC50, pseudovirus neutralization [31]: > 50 µg/mL
- IC50, pseudovirus neutralization [32]: > 50 µg/mL
- IC50, pseudovirus neutralization [33]: > 50 µg/mL
- IC50 (µg/mL), pseudovirus neutralization [34]: 0.019 µg/mL
- IC50 (µg/mL), pseudovirus neutralization [35]: > 50 µg/mL
- IC50, pseudovirus neutralization [36]: > 50 µg/mL
- IC50, pseudovirus neutralization [37]: > 50 µg/mL
- IC50 (µg/mL), pseudovirus neutralization [38]: > 50 µg/mL
- IC50, pseudovirus neutralization [39]: > 50 µg/mL
- IC50 [40]: > 50 µg/mL
- IC50 [41]: 20.3 µg/mL
- IC50 (µg/mL), pseudovirus neutralization [42]: 0.029 µg/mL
- IC50 (µg/mL), pseudovirus neutralization [43]: > 50 µg/mL
- IC50 (µg/mL), pseudovirus neutralization [44]: 2.07 µg/mL
- IC50 (µg/mL), pseudovirus neutralization [45]: 1.28 µg/mL
- IC50 [46]: > 50 µg/mL
- IC50, pseudovirus neutralization [47]: > 50 µg/mL
- IC50 [48]: 14.2 µg/mL
- IC50 (µg/mL), pseudovirus neutralization [49]: > 50 µg/mL
- IC50 (µg/mL), pseudovirus neutralization [50]: 0.022 µg/mL
- IC50 (µg/mL), pseudovirus neutralization [51]: 0.175 µg/mL
- IC50 [52]: 0.59 µg/mL
- IC50 (µg/mL), pseudovirus neutralization [53]: 0.628 µg/mL
- IC50 (ug/ml), neutralizing activity [54]: > 10 µg/mL
- IC50 (µg/mL), pseudovirus neutralization [55]: 0.093 µg/mL
- IC50 (µg/mL), pseudovirus neutralization [56]: 0.001 µg/mL
- IC50 (µg/mL), pseudovirus neutralization [57]: > 50 µg/mL
- IC50 (µg/mL), pseudovirus neutralization [58]: > 50 µg/mL
- IC50, pseudovirus neutralization [59]: 1.28 µg/mL
